Results reported in US20250145711A1 (Janssen / Centocor, published 2025).
Where a chain is given by its changes, count along the chain named. Names and notes keep the numbering of the source.

B1: CD3B2063 (scFv)
scFv: QVQLVQSGAEVKKPGSSVKVSCKASGYTFTRSTMHWVKQAPGQGLEWIGYINPSSAYTNYAQKFQGRVTLTADKSTSTAYMELSSLRSEDTAVYYCASPQVHYDYNGFPYWGQGTLVTVSSGGSEGKSSGSGSESKSTGGSEIVLTQSPATLSASPGERVTLSCSASSSVSYMNWYQQKPGTAPRRLIYDSSKLASGVPARFSGSGSGRDYTLTISSLEPEDFAVYYCQQWSRNPPTFGGGTKVEIK
B2: CD3B2064 (scFv)
scFv: B1 scFv with T182Q, A183S, L187W
B3: CD3B2065 (scFv)
scFv: B1 scFv with T182Q, L187W
B4: CD3B2069 (scFv)
scFv: B1 scFv with K38R, I48M, A61N, L187W
B5: CD3B2071 (scFv)
scFv: B1 scFv with K38R, I48M, A61N
B6: CD3B2072 (scFv)
scFv: B1 scFv with K38R, I48M, A61N, T182Q, A183S, L187W
B7: CD3B2073 (scFv)
scFv: B1 scFv with K38R, I48M, A61N, T182Q, L187W
B8: CD3B2077 (scFv)
scFv: B1 scFv with K38R, L187W
B9: CD3B2078 (scFv)
scFv: B1 scFv with K38R, A183S
B10: CD3B2079 (scFv)
scFv: B1 scFv with K38R
B11: CD3B2080 (scFv)
scFv: B1 scFv with K38R, T182Q, A183S, L187W
B12: CD3B2081 (scFv)
scFv: B1 scFv with K38R, T182Q, L187W
B13: CD3B2082 (scFv)
scFv: B1 scFv with K38R, I48M, A183S, L187W
B14: CD3B2086 (scFv)
scFv: B1 scFv with K38R, I48M, A183S
B15: CD3B2087 (scFv)
scFv: B1 scFv with K38R, I48M
B16: CD3B2088 (scFv)
scFv: B1 scFv with K38R, I48M, T182Q, A183S, L187W
B17: CD3B2085 (scFv)
scFv: B1 scFv with K38R, I48M, L187W
B18: CD3B2030 N106A (scFv)
scFv: B1 scFv with A61N, N106A, T182Q, L187W
B19: CD3B2030 N106I (scFv)
scFv: B1 scFv with A61N, N106I, T182Q, L187W
B20: CD3B2030 N106P (scFv)
scFv: B1 scFv with A61N, N106P, T182Q, L187W
B21: CD3B2089 G107F (scFv)
scFv: B1 scFv with K38R, I48M, G107F, T182Q, L187W
B22: CD3B2089 G107V (scFv)
scFv: B1 scFv with K38R, I48M, G107V, T182Q, L187W
B23: CD3B2089 G107Y (scFv)
scFv: B1 scFv with K38R, I48M, G107Y, T182Q, L187W
B24: CD3B2089 N106G (scFv)
scFv: B1 scFv with K38R, I48M, N106G, T182Q, L187W
B25: CD3B2089 N106L (scFv)
scFv: B1 scFv with K38R, I48M, N106L, T182Q, L187W
B26: CD3B2089 N106P (scFv)
scFv: B1 scFv with K38R, I48M, N106P, T182Q, L187W

What follows are binders tested against T1, CD3 on primary human pan T cells (human, UniProt P07766 23-207) (assay: flow cytometry, pan T-cells).
T1 construct: on cells it stands in the TCR/CD3 complex; also called Pan T-cells (CD3-positive); endogenous CD3
Procedure: ELISA assays for binding to recombinant CD3 (TRCW5, SEQ ID NO: 39) were performed as above. Cell binding was performed using primary human T cell and Jurkat cells by flow cytometry. Briefly, E. coli expressed anti CD3 ScFv supernatants, either at room temperature, or 55° C., 60° C. or 65° C. heat treated samples.
Pan T-cells (CD3-positive) and Jurkat-CD3-negative cells were prepared by staining Jurkat-CD3-negative cells with CFSE while keeping pan T-cells unstained. Jurkat-CD3-negative cell suspensions were resuspended at 20 million cells per each 50 mL conical tube. Cells were harvested by centrifugation at 400×g for 5 minutes and resuspended in DPBS followed by washing 2× in DPBS. Cells were stained with 1:25,000 dilution for a final dye concentration of 0.02 uM CFSE (2 uL of staining solution to 50 mL of cell suspension). Cells were incubated for 10 minutes at room temperature and centrifuged for 5 minutes at 400×g. After removal of supernatant, 3 mL of HI-FBS were added to the cell pellet, mixed and centrifuged for 5 min at 400×g. Supernatant was removed and cells were resuspended in BD stain buffer at 2×10\hat{ }6 cells/mL and incubated on ice or 4 C protected from light. Human pan T cells were thawed at 37 C and transferred gently into a conical tube containing 15 mL of warm or RT culture media (RPMI+10% FBS). […] Cells were harvested by centrifugation at 400×g for 5 min and resuspended in culture media (RPMI+10% HI-FBS). Pan T-cells (without staining) were prepared at 2×10\hat{ }6 cells/mL in flow staining buffer. Equal volumes of CFSE stained Jurkat-CD3-negative cells and unstained T-cells (CD3-positive) cells were mixed and plated 50 uL/well into assay plates. 50 uL/well neat bacterial supernatant samples and control sample (CD3W36 ScFv) were added to each well and plates were incubated 1 hr at 4 C or. Cells were harvested by centrifugation at 400×g for 4 min and 150 uL staining buffer were added to all wells, followed by centrifugation at 400×g for 4 min to pellet cells. To each well, 150 uL staining buffer were added followed by centrifugation at 400×g for 4 minutes to pellet cells.

T1 sequence (P07766 23-207 limits assumed): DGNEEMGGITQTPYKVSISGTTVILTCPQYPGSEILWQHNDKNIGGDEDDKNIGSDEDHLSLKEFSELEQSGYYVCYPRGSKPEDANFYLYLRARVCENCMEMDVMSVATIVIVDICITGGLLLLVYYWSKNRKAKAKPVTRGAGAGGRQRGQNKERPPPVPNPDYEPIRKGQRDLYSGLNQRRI

Row | Binder | % Binding retained on T-cells, 55° C. | % Binding retained on T-cells, 60° C. | % Binding retained on T-cells, 65° C. | % Binding retained on T-cells, RT
1 | B1 | 1 fraction | 0.996 fraction | 0.185 fraction | 1 fraction
2 | B2 | 1.17 fraction | 0.741 fraction | 0.241 fraction | 1 fraction
3 | B3 | 1.14 fraction | 1.33 fraction | 0.156 fraction | 1 fraction
4 | B4 | 1.08 fraction | 1.48 fraction | 0.11 fraction | 1 fraction
5 | B5 | 1.01 fraction | 0.899 fraction | 0.12 fraction | 1 fraction
6 | B6 | 0.872 fraction | 1.27 fraction | 0.0933 fraction | 1 fraction
7 | B7 | 0.993 fraction | 1.1 fraction | 0.348 fraction | 1 fraction
8 | B8 | 1.03 fraction | 1.1 fraction | 0.307 fraction | 1 fraction
9 | B9 | 1.01 fraction | 0.762 fraction | 0.0574 fraction | 1 fraction
10 | B10 | 1.06 fraction | 0.979 fraction | 0.116 fraction | 1 fraction
11 | B11 | 1.07 fraction | 1.13 fraction | 0.0573 fraction | 1 fraction
12 | B12 | 1.04 fraction | 1.2 fraction | 0.102 fraction | 1 fraction
13 | B13 | 1.11 fraction | 0.682 fraction | 0.276 fraction | 1 fraction
14 | B14 | 1.01 fraction | 1.12 fraction | 0.0404 fraction | 1 fraction
15 | B15 | 1.02 fraction | 0.964 fraction | 0.105 fraction | 1 fraction
16 | B16 | 1.01 fraction | 0.461 fraction | 0.258 fraction | 1 fraction
17 | B17 | 1.01 fraction | 0.411 fraction | 0.385 fraction | 1 fraction

These binders were tested against T2, TRCW5 antigen (CD3δε-Fc-Avi) (biotinylated (site not stated)) (assay: ELISA after heat).
T2 construct: also called recombinant CD3
T2 sequence (chain, as listed by the source mutant limits assumed): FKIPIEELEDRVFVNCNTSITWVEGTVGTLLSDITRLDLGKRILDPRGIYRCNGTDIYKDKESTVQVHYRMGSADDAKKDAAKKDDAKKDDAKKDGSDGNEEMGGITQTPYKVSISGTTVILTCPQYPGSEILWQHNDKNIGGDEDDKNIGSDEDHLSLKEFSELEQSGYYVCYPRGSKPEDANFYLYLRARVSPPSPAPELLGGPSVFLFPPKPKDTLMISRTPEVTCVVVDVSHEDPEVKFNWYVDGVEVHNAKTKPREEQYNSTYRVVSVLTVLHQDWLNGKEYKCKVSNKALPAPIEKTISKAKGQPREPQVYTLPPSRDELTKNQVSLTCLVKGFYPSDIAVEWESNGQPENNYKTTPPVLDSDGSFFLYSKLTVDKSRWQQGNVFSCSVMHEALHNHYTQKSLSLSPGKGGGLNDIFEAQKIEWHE

Row | Binder | % Retained 55° C. | % Retained 60° C. | % Retained 65° C.
18 | B1 | 108% | 92% | 11%
19 | B2 | 111% | 107% | 33%
20 | B3 | 115% | 112% | 48%
21 | B4 | 114% | 109% | 17%
22 | B5 | 103% | 88% | 4%
23 | B6 | 117% | 111% | 17%
24 | B7 | 113% | 110% | 27%
25 | B8 | 106% | 107% | 22%
26 | B9 | 107% | 88% | 2%
27 | B10 | 111% | 92% | 2%
28 | B11 | 109% | 108% | 17%
29 | B12 | 112% | 114% | 38%
30 | B13 | 114% | 116% | 9%
31 | B14 | 104% | 96% | 5%
32 | B15 | 104% | 94% | 5%
33 | B16 | 116% | 114% | 26%
34 | B17 | 112% | 117% | 18%

What follows are binders tested against T2, TRCW5 antigen (CD3δε-Fc-Avi) (assay: binding after heat).

Row | Binder | % Retained 55° C. | % Retained 60° C. | % Retained 65° C.
35 | B18 | 111% | 103% | 55.6%

These binders were tested against T2, TRCW5 antigen (CD3δε-Fc-Avi) (assay: ELISA).

Row | Binder | EC50
36 | B18 | 12.8 nM
37 | B19 | ~13.3 nM
38 | B20 | ~24 nM
39 | B21 | 14.4 nM
40 | B22 | 17.4 nM
41 | B23 | 21.4 nM
42 | B24 | ~429 nM
43 | B25 | 30.8 nM
44 | B26 | ~27.4 nM
